Tests used:
[1] = type: biochemical, M. tuberculosis; conditions: pH 8

B1: LIPI: M. tuberculosis putative lipase/esterase gene product expressed in E. coli (protein, UniProt P71668 1-320, looked up)
Esterase LipI: MPSLDNTADEKPAIDPILLKVLDAVPFRLSIDDGIEAVRQRLRDLPRQPVHPELRVVDLAIDGPAGPIGTRIYWPPTCPDQAEAPVVLYFHGGGFVMGDLDTHDGTCRQHAVGADAIVVSVDYRLAPEHPYPAAIEDAWAATRWVAEHGRQVGADLGRIAVAGDSAGGTIAAVIAQRARDMGGPPIVFQLLWYPSTLWDQSLPSLAENADAPILDVKAIAAFSRWYAGEIDLHNPPAPMAPGRAENLADLPPAYIAVAGYDPLRDDGIRYGELLAAAGVPVEVHNAQTLVHGYVGYAGVVPAATEATNRGLVALRVVLHG
modifications: expressed in E. coli
TG hydrolase activity [1]: 0 nmol/mg/min

B2: LIPY: M. tuberculosis long-chain TG hydrolase, HSL family lipase, expressed His-tagged in E. coli (protein, listed as Mycobacterium tuberculosis)
chain: EYVVAIHGGAFILPPSIFHWLNYSVTAYQTGATVQVPIYPLVQEGGTAGTVVPAMAGLSNVSVVGDSAGGNLALAAAQYMVSQGNPVPSSMVLLSPWLDVGTWQISQAWAGNLAVNLPPTYVYSGSLDPLAQQAVVLEHTAVVQGAPFSFVLAPWQIHDWILLTPWGLLSWPQINQQL
modifications: His6 tag
notes: M. tuberculosis long-chain TG hydrolase, HSL family lipase, expressed His-tagged in E. coli
TG hydrolase activity [1]: 48.6 nmol/mg/min | Rate of [14C]diolein hydrolysis (20 mM diolein emulsion): 316.8 ± 9.0 nmol/mg/min | Storage stability (60 days at 4° C. and 4 cycles of freezing at −20° C. followed by thawing): retained nearly all of its original activity | Temperature stability of lipase activity (held at 50° C. or higher for 15 min prior to assay): dropped off sharply | Fatty acid release from other substrates (phosphatidylcholine, phosphatidyl ethanolamine or hexadecyl palmitate, data not shown): did not show any fatty acid release | Km (read-out: apparent Km, triolein, double-reciprocal plot): 7.57 mM | Vmax (triolein, double-reciprocal plot): 653.3 nmol/mg/min

B3: LIPN: M. tuberculosis putative lipase/esterase gene product expressed in E. coli (protein, UniProt P95125 1-376, looked up)
Carboxylic ester hydrolase …: MTKSLPGVADLRLGANHPRMWTRRVQGTVVNVGVKVLPWIPTPAKRILSAGRSVIIDGNTLDPTLQLMLSTSRIFGVDGLAVDDDIVASRAHMRAICEAMPGPQIHVDVTDLSIPGPAGEIPARHYRPSGGGATPLLVFYHGGGWTLGDLDTHDALCRLTCRDADIQVLSIDYRLAPEHPAPAAVEDAYAAFVWAHEHASDEFGALPGRVAVGGDSAGGNLSAVVCQLARDKARYEGGPTPVLQWLLYPRTDFTAQTRSMGLFGNGFLLTKRDIDWFHTQYLRDSDVDPADPRLSPLLAESLSGLAPALIAVAGFDPLRDEGESYAKALRAAGTAVDLRYLGSLTHGFLNLFQLGGGSAAGTNELISALRAHLSRV
modifications: expressed in E. coli
TG hydrolase activity [1]: 0 nmol/mg/min

B4: LIPV: M. tuberculosis putative lipase/esterase gene product expressed in E. coli (protein, UniProt L0TC47 1-261, looked up)
Lipase LipV: MIIDLHVQRYGPSGPARVLTIHGVTEHGRIWHRLAHHLPEIPIAAPDLLGHGRSPWAAPWTIDANVSALAALLDNQGDGPVVVVGHSFGGAVAMHLAAARPDQVAALVLLDPAVALDGSRVREVVDAMLASPDYLDPAEARAEKATGAWADVDPPVLDAELDEHLVALPNGRYGWRISLPAMVCYWSELARDIVLPPVGTATTLVRAVRASPAYVSDQLLAALDKRLGADFELLDFDCGHMVPQAKPTEVAAVIRSRLGPR
TG hydrolase activity [1]: 0 nmol/mg/min

B5: LIPU: M. tuberculosis putative lipase/esterase gene product expressed in E. coli (protein, UniProt O53424 1-297, looked up)
Esterase LipU: MAVRPVLAVGSYLPHAPWPWGVIDQAARVLLPASTTVRAAVSLPNASAQLVRASGVLPADGTRRAVLYLHGGAFLTCGANSHGRLVELLSKFADSPVLVVDYRLIPKHSIGMALDDCHDGYRWLRLLGYEPEQIVLAGDSAGGYLALALAQRLQEVGEEPAALVAISPLLQLAKEHKQAHPNIKTDAMFPARAFDALDALVASAAARNQVDGEPEELYEPLEHITPGLPRTLIHVSGSEVLLHDAQLAAAKLAAAGVPAEVRVWPGQVHDFQVAASMLPEAIRSLRQIGEYIREATG
modifications: expressed in E. coli
TG hydrolase activity [1]: 0 nmol/mg/min

— US7601357B2 (priority 2005, dated 2009)
